Assay results: article PMC4908180

Tests used:
[1] = tested on: Nc1ncnc2c1ncn2[C@@H]1O[C@H](COP(=O)(O)OP(=O)(O)OP(=O)(O)O)[C@@H](O)[C@H]1O; assay: purified protein; conditions: FMN co-substrate, MgCl2, Tris-HCl pH 7.5, 37°C
[2] = tested on: Cc1cc2nc3c(=O)[nH]c(=O)nc-3n(C[C@H](O)[C@H](O)[C@H](O)COP(=O)(O)O)c2cc1C; assay: purified protein; type: biochemical, Homo sapiens; conditions: 100 μM ATP, 5 mM MgCl2, 50 mM Tris-HCl pH 7.5, 37°C

6His-tagged human FADS isoform 2 (FADS2), WT (Homo sapiens)
Km [1]: 8.10 ± 1.37 µM | Km [2]: 0.32 ± 0.10 µM

6His-tagged human FADS isoform 2 (FADS2), WT (Homo sapiens; DEL495-495)
Km [1]: 8.02 ± 2.23 µM | Km [2]: 0.98 ± 0.23 µM

6His-tagged human FADS isoform 2 (FADS2), WT (Homo sapiens; R530C)
Km [1]: 4.63 ± 1.00 µM | Km [2]: 0.39 ± 0.07 µM
